Data from patent publication US20190119362A1.

Assays:
[1] = biological target: aIgE-Fab (Fab fragment of Omalizumab) (Humanized antibody/IgG1κ); test: column breakthrough, 1 mg/mL aIgE-Fab, 0.33 mL/min
[2] = biological target: aIgE-Fab (Fab fragment of Omalizumab) (Humanized antibody/IgG1κ); test: ratio of 55% DBC for aIgE-Fab after against before 5 cycles of 50 mM NaOH
[3] = biological target: aIgE-Fab (Fab fragment of Omalizumab) (Humanized antibody/IgG1κ); test: column breakthrough, 1 mg/mL aIgE-Fab, after 5 cycles of 50 mM NaOH for 30 minutes
[4] = biological target: aTNFa-Fab (Fab fragment of Infliximab) (Chimeric antibody/IgG1κ); test: column breakthrough, 1 mg/mL aTNFa-Fab, quasi-static binding capacity at 55% breakthrough

Substance | 55% DBC before the alkaline washing [1] [mg/mL] | binding capability maintained after alkaline treatment [2] [%] | 55% DBC after the alkaline washing [3] [mg/mL] | 55% DBC [4] [mg/mL-gel]
LB5t-Wild.4d (tetramer of B5 domain of PpL 312), immobilized on agarose carrier | 23.6 | 92.8 | 21.9 | 
commercially available Protein L carrier (HiTrap Protein L, GE Healthcare Bioscience) |  |  |  | 4.8
